# Like-named read-outs stand apart in the source and are kept apart here.
# T1: C1r proenzyme (zymogen of complement protease C1r) (human)
# T1 sequence (P00736 18-705, looked up): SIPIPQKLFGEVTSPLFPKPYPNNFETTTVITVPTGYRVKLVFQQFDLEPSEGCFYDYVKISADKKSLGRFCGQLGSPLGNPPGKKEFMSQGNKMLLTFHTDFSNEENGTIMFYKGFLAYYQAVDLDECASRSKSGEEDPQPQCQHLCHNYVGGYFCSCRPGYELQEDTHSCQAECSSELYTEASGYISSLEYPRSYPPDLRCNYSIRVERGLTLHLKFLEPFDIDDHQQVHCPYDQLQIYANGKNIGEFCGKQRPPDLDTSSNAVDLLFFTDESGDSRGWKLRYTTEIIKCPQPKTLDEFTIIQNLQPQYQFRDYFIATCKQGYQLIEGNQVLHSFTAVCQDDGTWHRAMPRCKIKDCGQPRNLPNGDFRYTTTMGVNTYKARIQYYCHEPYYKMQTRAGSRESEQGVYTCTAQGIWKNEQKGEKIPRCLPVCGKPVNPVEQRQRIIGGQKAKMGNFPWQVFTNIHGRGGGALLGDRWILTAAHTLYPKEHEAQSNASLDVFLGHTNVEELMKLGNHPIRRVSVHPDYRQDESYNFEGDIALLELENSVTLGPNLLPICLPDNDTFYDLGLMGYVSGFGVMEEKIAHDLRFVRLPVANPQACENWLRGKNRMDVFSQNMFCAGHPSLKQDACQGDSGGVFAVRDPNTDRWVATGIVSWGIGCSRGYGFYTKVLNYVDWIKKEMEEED
# B1: eSALO-WT (SALO, salivary anticomplement from Lutzomyia longipalpis, expressed by HEK293(T) cells) (natural protein)
# chain: SEDCENIFHDNAYLLKLDCEAGRVDPVEYDDISDEEIYEITVDVGVSSEDQEKVAKIIRECIAQVSTQDCTKFSEIYDCYMKKKICNYYPENM
# modifications: sulfotyrosine at Y51 (X51; extent of sulfation not known); biotin (NHS-PEG4-biotin) where surface-captured in SPR
# B2: rSALO-WT (SALO expressed in Escherichia coli and refolded) (natural protein)
# chain: B1 chain
# Columns and labels:
# [1] = target: eSALO-WT (SALO, salivary anticomplement from Lutzomyia longipalpis, expressed by HEK293(T) cells) (Lutzomyia longipalpis) (UniProt Q5WPZ4); assay: SPR; biotinylated eSALO-WT captured on streptavidin (97 RU); single-cycle kinetics, C1r proenzyme 25-400 nM, zC1r-12SP 6.25-100 nM; 25 °C, HBS-T; two-state kinetic model, apparent KD
# [2] = target: eSALO-E58A (Lutzomyia longipalpis); assay: SPR; biotinylated eSALO-WT or mutants captured on streptavidin (50-73 RU); single-cycle kinetics, C1r proenzyme 25-400 nM, zC1r-12SP 6.25-100 nM; 25 °C, HBS-T; two-state binding model, apparent KD; mean ± SD of three injections
# [3] = target: eSALO-WT (SALO, salivary anticomplement from Lutzomyia longipalpis, expressed by HEK293(T) cells) (Lutzomyia longipalpis) (UniProt Q5WPZ4); assay: as above
# [4] = target: eSALO-Y51F (Lutzomyia longipalpis); assay: as above
# [5] = target: eSALO-WT (SALO, salivary anticomplement from Lutzomyia longipalpis, expressed by HEK293(T) cells) (Lutzomyia longipalpis) (UniProt Q5WPZ4); assay: SPR; eSALO-WT amine-coupled to a CMD200M chip (720 RU); analytes injected as two-fold series (15.6-1000 nM; 1.56-100 nM for C1 and C1r proenzyme); 25 °C, HBS-T (20 mM Hepes pH 7.4, 140 mM NaCl, 0.005% Tween-20); 1:1 model, apparent KD
# [6] = target: T1, C1r proenzyme (zymogen of complement protease C1r) (human)
# [7] = target: T1, C1r proenzyme (zymogen of complement protease C1r) (human); remark: listed apart in the source
molecule,measurement,setting,value
C1r proenzyme (zymogen of complement protease C1r),Kd,[1],11.1 nM
same,"Ka-1 (two-state model, first step, association)",[2],50000 M⁻¹ s⁻¹
same,"Ka-2 (two-state model, second step, forward)",[2],0.0023 s⁻¹
same,Kd,[2],10.3 nM
same,"Kd-1 (two-state model, first step, dissociation)",[2],0.0027 s⁻¹
same,"Kd-2 (two-state model, second step, reverse)",[2],0.00037 s⁻¹
same,"Ka-1 (two-state model, first step, association)",[3],30000 M⁻¹ s⁻¹
same,"Ka-2 (two-state model, second step, forward)",[3],0.003 s⁻¹
same,Kd,[3],5.6 nM
same,"Kd-1 (two-state model, first step, dissociation)",[3],0.0022 s⁻¹
same,"Kd-2 (two-state model, second step, reverse)",[3],0.00027 s⁻¹
same,"Ka-1 (two-state model, first step, association)",[4],370000 M⁻¹ s⁻¹
same,"Ka-2 (two-state model, second step, forward)",[4],0.0008 s⁻¹
same,Kd,[4],41.9 nM
same,"Kd-1 (two-state model, first step, dissociation)",[4],0.0183 s⁻¹
same,"Kd-2 (two-state model, second step, reverse)",[4],0.00069 s⁻¹
same,Kd,[5],8.5 nM
Native C1 complex (first component of complement) (from UniProt P02745 23-245; P02746 28-253; P02747 29-245),Kd,[5],0.8 nM
eSALO-E58A (natural protein),"IC50 of inhibition of classical-pathway hemolysis (antibody-sensitized sheep erythrocytes, 0.5% NHS)",[6],1200 nM
eSALO-Y51F (natural protein),"IC50 of inhibition of classical-pathway hemolysis (antibody-sensitized sheep erythrocytes, 0.5% NHS)",[6],14500 nM
"zC1r-12SP (fragment of human C1r with its two CCP repeats and serine protease domain, S654A, zymogen-like) (domain or fragment)",Kd,[1],0.7 nM
same,"Ka-1 (two-state model, first step, association)",[2],260000 M⁻¹ s⁻¹
same,"Ka-2 (two-state model, second step, forward)",[2],0.0018 s⁻¹
same,Kd,[2],2.5 nM
same,"Kd-1 (two-state model, first step, dissociation)",[2],0.0034 s⁻¹
same,"Kd-2 (two-state model, second step, reverse)",[2],0.00041 s⁻¹
same,"Ka-1 (two-state model, first step, association)",[3],370000 M⁻¹ s⁻¹
same,"Ka-2 (two-state model, second step, forward)",[3],0.0024 s⁻¹
same,Kd,[3],1.1 nM
same,"Kd-1 (two-state model, first step, dissociation)",[3],0.0038 s⁻¹
same,"Kd-2 (two-state model, second step, reverse)",[3],0.00028 s⁻¹
same,"Ka-1 (two-state model, first step, association)",[4],280000 M⁻¹ s⁻¹
same,"Ka-2 (two-state model, second step, forward)",[4],0.0017 s⁻¹
same,Kd,[4],9 nM
same,"Kd-1 (two-state model, first step, dissociation)",[4],0.008 s⁻¹
same,"Kd-2 (two-state model, second step, reverse)",[4],0.00077 s⁻¹
B1,"IC50 of inhibition of classical-pathway hemolysis (antibody-sensitized sheep erythrocytes, 0.5% NHS)",[6],84.9 nM
B2,"IC50 of inhibition of classical-pathway hemolysis (antibody-sensitized sheep erythrocytes, 0.5% NHS)",[7],16000 nM
